Square brackets hold non-standard residues; d marks the D form. Ends that are not written are not given here. Ahx = NCCCCCC(=O)O
T1: neuropeptide Y5 receptor (Homo sapiens (Human)), Q15761
T1 chain: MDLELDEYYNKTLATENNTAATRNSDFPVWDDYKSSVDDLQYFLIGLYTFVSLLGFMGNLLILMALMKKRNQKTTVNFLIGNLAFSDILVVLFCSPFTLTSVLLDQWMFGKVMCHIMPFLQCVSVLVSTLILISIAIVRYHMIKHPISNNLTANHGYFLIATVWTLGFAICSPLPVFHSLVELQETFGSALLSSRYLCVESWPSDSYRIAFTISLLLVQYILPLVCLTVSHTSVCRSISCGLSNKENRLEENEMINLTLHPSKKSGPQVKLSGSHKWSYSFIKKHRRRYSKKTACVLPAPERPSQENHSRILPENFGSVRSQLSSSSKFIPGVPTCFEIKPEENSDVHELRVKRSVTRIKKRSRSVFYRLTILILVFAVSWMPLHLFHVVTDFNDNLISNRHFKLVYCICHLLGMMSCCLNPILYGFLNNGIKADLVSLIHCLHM

T2: neuropeptide Y2 receptor, P49146
T2 chain: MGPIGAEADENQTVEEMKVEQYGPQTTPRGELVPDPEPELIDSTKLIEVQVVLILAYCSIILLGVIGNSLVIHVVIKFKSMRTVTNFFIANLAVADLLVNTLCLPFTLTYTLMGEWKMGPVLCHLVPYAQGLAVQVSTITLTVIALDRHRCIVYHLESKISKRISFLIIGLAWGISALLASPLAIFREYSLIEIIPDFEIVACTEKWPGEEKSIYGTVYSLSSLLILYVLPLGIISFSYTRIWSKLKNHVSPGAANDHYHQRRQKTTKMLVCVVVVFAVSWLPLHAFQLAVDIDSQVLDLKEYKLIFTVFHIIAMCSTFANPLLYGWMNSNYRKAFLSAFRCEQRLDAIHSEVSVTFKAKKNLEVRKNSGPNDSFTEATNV

T3: neuropeptide Y1 receptor, P25929
T3 chain: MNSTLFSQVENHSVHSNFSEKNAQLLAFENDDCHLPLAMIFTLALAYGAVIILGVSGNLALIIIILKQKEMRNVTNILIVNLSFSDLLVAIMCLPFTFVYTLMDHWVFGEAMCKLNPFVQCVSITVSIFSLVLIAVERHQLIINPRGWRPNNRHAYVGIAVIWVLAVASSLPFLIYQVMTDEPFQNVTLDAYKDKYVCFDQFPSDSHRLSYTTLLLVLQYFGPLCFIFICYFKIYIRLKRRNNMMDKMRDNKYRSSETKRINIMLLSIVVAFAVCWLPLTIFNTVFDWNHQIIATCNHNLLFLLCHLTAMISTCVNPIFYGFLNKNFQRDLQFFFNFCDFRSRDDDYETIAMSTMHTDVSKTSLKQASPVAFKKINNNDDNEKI


Columns and labels:
neuropeptide Y4 receptor [1] = test: radioligand competition, [125I]-hPP, Y4/CHO-K1 membranes
neuropeptide Y4 receptor, sequence (P50391 whole entry): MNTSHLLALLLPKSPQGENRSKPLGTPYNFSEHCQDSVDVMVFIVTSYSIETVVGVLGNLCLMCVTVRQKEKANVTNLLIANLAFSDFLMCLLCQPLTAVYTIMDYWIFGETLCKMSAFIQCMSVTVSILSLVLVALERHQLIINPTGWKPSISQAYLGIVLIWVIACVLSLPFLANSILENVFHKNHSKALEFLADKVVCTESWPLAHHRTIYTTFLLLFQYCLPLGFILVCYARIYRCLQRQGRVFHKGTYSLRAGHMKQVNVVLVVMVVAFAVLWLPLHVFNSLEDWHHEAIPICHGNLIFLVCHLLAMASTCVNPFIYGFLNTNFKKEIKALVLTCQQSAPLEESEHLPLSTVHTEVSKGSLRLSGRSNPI

[2] = target: T1, neuropeptide Y5 receptor (Homo sapiens …); test: radioligand competition, [125I]-hPYY, Y5/CHO-K1 membranes
[3] = target: T2, neuropeptide Y2 receptor, P49146; test: radioligand competition, [125I]-hPYY, SK-N-BE membranes
[4] = target: T3, neuropeptide Y1 receptor, P25929; test: radioligand competition, [125I]-hPYY, SK-N-MC membranes
neuropeptide Y4 receptor [5] = test: competition vs [125I]-hPP, Y4-transfected CHO-K1 membranes
[6] = target: T2, neuropeptide Y2 receptor, P49146; test: competition vs [125I]-hPYY, SK-N-BE membranes
[7] = target: T3, neuropeptide Y1 receptor, P25929; test: competition vs [125I]-hPYY, SK-N-MC membranes
[8] = target: T1, neuropeptide Y5 receptor (Homo sapiens …); test: competition vs [125I]-hPYY, Y5-transfected CHO-K1 membranes
[9] = target: T3, neuropeptide Y1 receptor, P25929; test: displacement of [125I]-human PYY, SK-N-MC membranes
[10] = target: T2, neuropeptide Y2 receptor, P49146; test: displacement of [125I]-human PYY, SK-N-BE membranes
neuropeptide Y5 receptor = test: displacement of [125I]-human PYY, Y5-transfected CHO-K1 membranes
neuropeptide Y4 receptor [11] = test: displacement of [125I]-human PP, Y4-transfected CHO-K1 membranes

Row | Binder | Y4 RBA (neuropeptide Y4 receptor [1]) | Y5RBA [2] | Y2RBA [3] | Y1RBA [4] | also measured
1 | ASLRHYLNLVTRQRY (modifications not checked) [SEQ ID NO 202] | 23 nM |  |  |  | 
2 | APLEPVYPGDNATPEQMNRYYASLRHFLNLVTRQRY (modifications not checked) [SEQ ID NO 288] | 11 nM | 1.1 nM | 0.35 nM | 1.8 nM | 
3 | APLEPVYPGDNASPEELNRYYASLRHYLNLVTRQRY (modifications not checked) [SEQ ID NO 297] | 4 nM | 1.8 nM | 0.32 nM | 3.6 nM | 
4 | APLEPVYPGDNATPEQMNKYYASLRHYLNLVTRQRY (modifications not checked) [SEQ ID NO 293] | 0.87 nM | 0.48 nM | 0.18 nM | 0.82 nM | 
5 | APLEPVYPGDNATPEQLNRYYASLRHYLNLVTRQRY (modifications not checked) [SEQ ID NO 295] | 1 nM | 0.63 nM | 0.18 nM | 1 nM | 
6 | APLEPVYPGDNATPEQMNKYYASLRHYLNLVTRQRY (modifications not checked) [SEQ ID NO 306] | 1.2 nM | 0.27 nM | 0.16 nM | 0.6 nM | 
7 | APLEPVYPGDNATPEQMNRYYASLRAYLNLVTRQRY (modifications not checked) [SEQ ID NO 308] | 2.1 nM | 1.4 nM | 0.56 nM | 1 nM | 
8 | APLEPVYPGDNATPEQMNRYYASLRHYLNLAPRQRY (modifications not checked) [SEQ ID NO 289] | 48 nM | 0.83 nM |  |  | 
9 | APLEPVYPGDNATPEELNRYYASLRHYLNLVTRQRY (modifications not checked) [SEQ ID NO 296] | 2.9 nM | 2.1 nM | 0.76 nM | 2.7 nM | 
10 | RHYLNLVTRQRY (modifications not checked) [SEQ ID NO: 179] |  |  |  |  | Y4 RBA (neuropeptide Y4 receptor [5]): 33 nM
11 | YPIK[Ahx]ELNRYYASLRHYLNLVTRQRY (ends and bridges not checked) [PYY(1-4)Aca(16-36)] |  |  |  |  | Y4 RBA (neuropeptide Y4 receptor [5]): 65 nM; Y2RBA [6]: 0.21 nM; Y1RBA [7]: 4.4 nM; Y5RBA [8]: 5.8 nM
12 | YPIAPEAPGEDASPEELAQYAADLRRYINMLTRQRY (modifications not checked) [SEQ ID NO: 476] |  |  |  |  | Y1RBA [9]: 27 nM; Y2RBA [10]: 7.4 nM; Y5RBA (neuropeptide Y5 receptor): 15 nM; Y4 RBA (neuropeptide Y4 receptor [11]): 53 nM
13 | YPIKPEAPGEDASPEELNQYAADLRRYINMLTRQRY (modifications not checked) [SEQ ID NO 316] | 52 nM | 1.1 nM | 0.63 nM | 7.1 nM | 
14 | YPIKPEAPGEDASPDELAQYAADLRRYINMLTRQRY (modifications not checked) [SEQ ID NO 342] | 84 nM | 1.4 nM | 0.62 nM | 15 nM | 
15 | YAIKPEAPGEDASPEELAQYAADLRRYINMLTRQRY (modifications not checked) [SEQ ID NO 318] | 84 nM | 1.9 nM | 1.3 nM | 100 nM | 
16 | YPIKPEAPGEDASPQELAQYAADLRRYINMLTRQRY (modifications not checked) [SEQ ID NO 341] | 11 nM | 0.3 nM | 0.15 nM | 1.8 nM | 
17 | YPIKPEAPGEDASPEELNQYAASLRRYINMLTRQRY (modifications not checked) [SEQ ID NO 317] | 16 nM | 0.69 nM | 0.097 nM | 4.3 nM | 
18 | YPIKPEAPGEDASPEELAQYAADLKRYINMLTRQRY (modifications not checked) [SEQ ID NO 321] | 57 nM | 5.6 nM | 3.7 nM | 12 nM | 
19 | YPIKPEAPGEDASPEELAQYAAELRRYIQMLTRQRY (modifications not checked) [SEQ ID NO 347] | 740 nM | 51 nM | 18 nM | 35 nM | 
20 | YPIRPEAPGEDASPEELAQYAADLRRYINMLTRQRY (modifications not checked) [SEQ ID NO 332] | 38 nM | 1 nM | 0.54 nM | 13 nM | 
21 | YPIKPEAPGEDASPEELAQYAADLRRYINMLTRPRY (modifications not checked) [SEQ ID NO 309] | 5.6 nM | 1.5 nM | 78 nM | 3.3 nM | 
22 | YPIKPEAGPEDASPEELAQYAADLRRYINMLTRQRY (modifications not checked) [SEQ ID NO 335] | 109 nM | 3.6 nM | 0.72 nM | 34 nM | 
23 | YYASLRHYLNLVTRQRY (modifications not checked) [SEQ ID NO: 178] |  |  |  |  | Y4 RBA (neuropeptide Y4 receptor [5]): 38 nM; Y2RBA [6]: 0.29 nM; Y1RBA [7]: 7.7 nM; Y5RBA [8]: 17 nM
24 | ASLRHYLNLVTRQRY (modifications not checked) [SEQ ID NO 203] | 108 nM |  |  |  | 
25 | APLEPVYPGDNATPEQMAQYAADLRRYINMLTRPRY (modifications not checked) [PP (human pancreatic polypeptide)] |  |  |  |  | Y4 RBA (neuropeptide Y4 receptor [5]): 0.034 nM
26 | EELNRYYASLRHYLNLVTRQRY (modifications not checked) [SEQ ID NO: 177] |  |  |  |  | Y4 RBA (neuropeptide Y4 receptor [5]): 46 nM; Y2RBA [6]: 0.34 nM; Y1RBA [7]: 5.8 nM; Y5RBA [8]: 11 nM
27 | IAPEAPGEDASPEELAQYAADLRRYINMLTRQRY (modifications not checked) [SEQ ID NO: 477] |  |  |  |  | Y1RBA [9]: 265 nM; Y2RBA [10]: 4.4 nM; Y5RBA (neuropeptide Y5 receptor): 18 nM; Y4 RBA (neuropeptide Y4 receptor [11]): 164 nM
28 | IKPEAPGEDASPEELAQYAADLRRYINMLTRPRY (modifications not checked) [SEQ ID NO 310] | 27 nM | 5.1 nM | 454 nM | 29 nM | 
